Source: the supplement of paper PMC9233669
Fewer inactive variants are shown than the library holds.

Key:
[1] = system: biotinyl-Phe-oxazolone; assay: self-aminoacylation, catalytic enhancement (BFO) (fold over background); higher = more active; k-Seq, kA / k0A0; sequences stand for … in GGGAAUGGAUCCACAUCUACGAAUUC…UUCACUGCAGACUUGACGAAGCUG
Summary of the method: (§1)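 Each biotinyl-aminoacyl-oxazolone, at 2–1250 μM, was incubated with mutagenized RNA pools (0.43 μM) carrying a 21-nt variable region. The 50 μL reactions contained HEPES/NaCl/KCl/MgCl2/CaCl2 buffer with 5% acetonitrile at pH 6.9–7.0 and ran for 90 minutes at room temperature. After streptavidin capture, RNA was measured by qPCR in triplicate and by Illumina sequencing, and catalytic enhancement was calculated as median kA over the uncatalyzed rate from a pseudo-first-order fit of per-sequence fraction reacted.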

[2] = system: biotinyl-Ile-oxazolone; assay: self-aminoacylation, catalytic enhancement (BIO) (fold over background); higher = more active; k-Seq, kA / k0A0; sequences stand for … in GGGAAUGGAUCCACAUCUACGAAUUC…UUCACUGCAGACUUGACGAAGCUG
Summary of the method: as §1

[3] = system: biotinyl-Met-oxazolone; assay: self-aminoacylation, catalytic enhancement (BMO) (fold over background); higher = more active; k-Seq, kA / k0A0; sequences stand for … in GGGAAUGGAUCCACAUCUACGAAUUC…UUCACUGCAGACUUGACGAAGCUG
Summary of the method: as §1

[4] = system: biotinyl-Val-oxazolone; assay: self-aminoacylation, catalytic enhancement (BVO) (fold over background); higher = more active; k-Seq, kA / k0A0; sequences stand for … in GGGAAUGGAUCCACAUCUACGAAUUC…UUCACUGCAGACUUGACGAAGCUG
Summary of the method: as §1

[5] = system: biotinyl-Leu-oxazolone; assay: self-aminoacylation, catalytic enhancement (BLO) (fold over background); higher = more active; k-Seq, kA / k0A0; sequences stand for … in GGGAAUGGAUCCACAUCUACGAAUUC…UUCACUGCAGACUUGACGAAGCUG
Summary of the method: as §1

[6] = system: biotinyl-Trp-oxazolone; assay: self-aminoacylation, catalytic enhancement (BWO) (fold over background); higher = more active; k-Seq, kA / k0A0; sequences stand for … in GGGAAUGGAUCCACAUCUACGAAUUC…UUCACUGCAGACUUGACGAAGCUG
Summary of the method: as §1

Row | Sequence | self-aminoacylation [1] | self-aminoacylation [2] | self-aminoacylation [3] | self-aminoacylation [4] | self-aminoacylation [5] | self-aminoacylation [6]
1 | AUUACCCUGGUCAACGAGGGA [Fam2.1 aminoacylation ribozyme variant] | 1.26 | 1.49 | 1.49 | 1.56 | 1.85 | 2.56
2 | AUUACCCUGGUCAACGAGUCA [Fam2.1 aminoacylation ribozyme variant] | 0.683 | 1.14 | 1.05 | 0.969 | 0.745 | 0.482
3 | AUUACCCUGGUCAACGAGUGG [Fam2.1 aminoacylation ribozyme variant] | 2.19 | 1.04 | 1.49 | 1.09 | 1.38 | 1.78
4 | AUUACCCUGGUCACAGAGUGA [Fam2.1 aminoacylation ribozyme variant] | 54.1 | 4.39 | 8.95 | 4.01 | 10.9 | 9.52
5 | AUUACCCUGGUCACCGAAUGA [Fam2.1 aminoacylation ribozyme variant] | 0.595 | 0.992 | 1.22 | 1.15 | 1.31 | 0.91
6 | AUUACCCUGGUCACCGAGUGA [Fam2.1 aminoacylation ribozyme variant] | 51.3 | 3.9 | 8.44 | 4.25 | 9.26 | 9.22
7 | AUUACCCUGGUCACCGAGUGG [Fam2.1 aminoacylation ribozyme variant] | 7.88 | 1.57 | 2.6 | 2.08 | 3.56 | 3.23
8 | AUUACCCUGGUCACCGAGUGU [Fam2.1 aminoacylation ribozyme variant] | 16.6 | 2.65 | 4.97 | 2.55 | 5.37 | 5.42
9 | AUUACCCUGGUCACUGAGUGA [Fam2.1 aminoacylation ribozyme variant] | 10.5 | 2.75 | 3.91 | 2.75 | 3.91 | 4.62
10 | AUUACCCUGGUCAGCAAGUGA [Fam2.1 aminoacylation ribozyme variant] | 9.67 | 2.95 | 4.16 | 2.61 | 4 | 4.8
11 | AUUACCCUGGUCAGCCAGUGA [Fam2.1 aminoacylation ribozyme variant] | 46.3 | 5.41 | 9.13 | 5.21 | 10.6 | 11
12 | AUUACCCUGGUCAGCGAGUGA [Fam2.1 aminoacylation ribozyme variant] | 16.6 | 2.92 | 4.42 | 3.01 | 4.71 | 5.36
13 | AUUACCCUGGUCAGCGAGUGU [Fam2.1 aminoacylation ribozyme variant] | 15.4 | 2.49 | 3.7 | 2.41 | 3.85 | 4.47
14 | AUUACCCUGGUCAUACAGUGA [Fam2.1 aminoacylation ribozyme variant] | 14.8 | 2.91 | 4.03 | 3.03 | 4.57 | 5.95
15 | AUUACCCUGGUCAUAGCGUGA [Fam2.1 aminoacylation ribozyme variant] | 51.8 | 4.12 | 8.87 | 4.99 | 9.18 | 10.6
16 | AUUACCCUGGUCAUAGUGUGA [Fam2.1 aminoacylation ribozyme variant] | 0.987 | 0.955 | 1.12 | 0.977 | 0.978 | 0.799
17 | AUUACCCUGGUCAUCGAAUAA [Fam2.1 aminoacylation ribozyme variant] | 0.904 | 0.801 | 0.987 | 1.15 | 0.914 | 1.41
18 | AUUACCCUGGUCAUCGACUGU [Fam2.1 aminoacylation ribozyme variant] | 0.377 | 0.846 | 0.726 | 0.804 | 0.82 | 0.723
19 | AUUACCCUGGUCAUCGAGAGA [Fam2.1 aminoacylation ribozyme variant] | 3.1 | 1.28 | 1.8 | 1.36 | 1.72 | 1.46
20 | AUUACCCUGGUCAUCGAGAGU [Fam2.1 aminoacylation ribozyme variant] | 1.79 | 0.803 | 0.991 | 1.02 | 0.822 | 0.568
21 | AUUACCCUGGUCAUCGAGGCA [Fam2.1 aminoacylation ribozyme variant] | 1.25 | 1.29 | 1.9 | 1.59 | 1.97 | 0.847
22 | AUUACCCUGGUCAUCGAGGGA [Fam2.1 aminoacylation ribozyme variant] | 9.56 | 2.71 | 5.93 | 2.99 | 5.66 | 5.46
23 | AUUACCCUGGUCAUCGAGUCU [Fam2.1 aminoacylation ribozyme variant] | 0.56 | 0.697 | 0.784 | 0.901 | 0.712 | 0.846
24 | AUUACCCUGGUCAUCGAGUUG [Fam2.1 aminoacylation ribozyme variant] | 3.62 | 1.27 | 2.14 | 1.75 | 2.04 | 1.47
25 | AUUACCCUGGUCAUCGAUUGC [Fam2.1 aminoacylation ribozyme variant] | 0.81 | 1.15 | 0.757 | 0.926 | 0.84 | 0.663
26 | AUUACCCUGGUCAUCGCCUGA [Fam2.1 aminoacylation ribozyme variant] | 14.2 | 2.72 | 2.48 | 3.15 | 3.64 | 3.69

Row | Sequence | self-aminoacylation [1] | self-aminoacylation [2] | self-aminoacylation [3] | self-aminoacylation [4] | self-aminoacylation [5] | self-aminoacylation [6]
27 | AUUACCCUGGUCAUCGCGGGA [Fam2.1 aminoacylation ribozyme variant] | 29.3 | 5.03 | 5.35 | 4.56 | 7.42 | 3.4
28 | AUUACCCUGGUCAUCGCGUGU [Fam2.1 aminoacylation ribozyme variant] | 51.7 | 4.14 | 8.31 | 4.84 | 9.06 | 8.25
29 | AUUACCCUGGUCAUCGCGUUA [Fam2.1 aminoacylation ribozyme variant] | 12.7 | 2.27 | 2.71 | 2.32 | 2.73 | 4.12
30 | AUUACCCUGGUCAUCGGGUGG [Fam2.1 aminoacylation ribozyme variant] | 395 | 22.6 | 68 | 26.3 | 80.6 | 81.4
31 | AUUACCCUGGUCAUCGUGUGA [Fam2.1 aminoacylation ribozyme variant] | 17.2 | 1.58 | 3.01 | 1.85 | 3.08 | 3.41
32 | AUUACCCUGGUCAUCUAAUGA [Fam2.1 aminoacylation ribozyme variant] | 0.963 | 0.967 | 1.06 | 0.917 | 0.908 | 0.586
33 | AUUACCCUGGUCAUCUAGAGA [Fam2.1 aminoacylation ribozyme variant] | 0.684 | 1.04 | 0.865 | 1.03 | 0.887 | 0.6
34 | AUUACCCUGGUCAUCUAGUGC [Fam2.1 aminoacylation ribozyme variant] | 1.27 | 0.835 | 1.06 | 1 | 1.08 | 0.68
35 | AUUACCCUGGUCAUUCAGUGA [Fam2.1 aminoacylation ribozyme variant] | 14.1 | 3.33 | 4.7 | 3.16 | 5.37 | 6.28
36 | AUUACCCUGGUCAUUGAGGGA [Fam2.1 aminoacylation ribozyme variant] | 1.13 | 1.23 | 1.25 | 1.51 | 1.25 | 2.06
37 | AUUACCCUGGUCAUUGAGUGU [Fam2.1 aminoacylation ribozyme variant] | 18.9 | 2.42 | 4.42 | 2.78 | 4.72 | 5.6
38 | AUUACCCUGGUCCACGAGUGA [Fam2.1 aminoacylation ribozyme variant] | 61.1 | 5.37 | 9.99 | 4.95 | 10.7 | 10.5
39 | AUUACCCUGGUCCCCGAGUGA [Fam2.1 aminoacylation ribozyme variant] | 113 | 6.57 | 15.2 | 8.55 | 15.6 | 17.3
40 | AUUACCCUGGUCCGCGAGUGA [Fam2.1 aminoacylation ribozyme variant] | 53.1 | 6.07 | 10.5 | 6.47 | 11.5 | 11.5
41 | AUUACCCUGGUCGUCAAGUGA [Fam2.1 aminoacylation ribozyme variant] | 0.371 | 0.713 | 0.773 | 0.836 | 0.821 | 0.394
42 | AUUACCCUGGUCGUCGAGUGC [Fam2.1 aminoacylation ribozyme variant] | 1.76 | 0.739 | 0.9 | 0.907 | 0.808 | 0.43
43 | AUUACCCUGGUCGUCGCGUGA [Fam2.1 aminoacylation ribozyme variant] | 48.7 | 3.98 | 6.7 | 4.34 | 8.84 | 8.26
44 | AUUACCCUGGUCGUCUAGUGA [Fam2.1 aminoacylation ribozyme variant] | 2.09 | 1.15 | 1.37 | 1.04 | 1.53 | 0.905
45 | AUUACCCUGGUCUUAGAGUGA [Fam2.1 aminoacylation ribozyme variant] | 39.5 | 4.28 | 7.82 | 4.31 | 7.33 | 9.81
46 | AUUACCCUGGUCUUCGAGUGA [Fam2.1 aminoacylation ribozyme variant] | 26.4 | 3.09 | 5.36 | 3.3 | 5.52 | 6.84
47 | AUUACCCUGGUCUUCGAUUGA [Fam2.1 aminoacylation ribozyme variant] | 0.383 | 0.769 | 0.723 | 0.779 | 0.67 | 0.41
48 | AUUACCCUGGUCUUCGGGUGA [Fam2.1 aminoacylation ribozyme variant] | 48.9 | 4.68 | 8.38 | 5.66 | 9.51 | 9.66
49 | AUUACCCUGGUCUUCUAGUGA [Fam2.1 aminoacylation ribozyme variant] | 23.6 | 2.92 | 5.28 | 3.54 | 5.65 | 7.45
50 | AUUACCCUGGUGAUAGAGUGA [Fam2.1 aminoacylation ribozyme variant] | 53.4 | 3.75 | 9.04 | 3.62 | 8.59 | 8.54
51 | AUUACCCUGGUGAUCCAGUGA [Fam2.1 aminoacylation ribozyme variant] | 60.7 | 4.33 | 9.84 | 4.65 | 9.64 | 12.4
